PMC3530536

Biological target: recombinant RRM2 domain (aa 190–265) of human WT TDP-43 (human) (UniProt Q13148)
Test: SEC; Superdex 75 10/300 in PBS, 0.5 mL/min; soluble RRM2 2–3 mg/mL after heat at 70°C for 10 min, nucleotide-free

stoichiometry N: 2
Substance: recombinant RRM2 domain (aa 190–265) of human WT TDP-43 (from UniProt Q13148 190-265) (domain or fragment)
